Data published in patent US20170008943A1 (Novo Nordisk, published 2017).
*1 amine or outer side, *2 acyl side, *3 side chain or, on linkers, in order; H or OH if unused. Side-chain parts run from the residue outwards. [ ]: non-standard residue; d: D form. The star is where a group is joined. γGlu = O=C(O)[C@H](CCC(=O)[*:2])N[*:1]; Desaminohistidyl = O=C(CCc1c[nH]cn1)*; Aib = CC(C)(N)C(=O)O

B1: N^ε24-[(4S)-4-[[(4S)-4-[[(4S)-4-acetamido-4-carboxybutanoyl]amino]-4-carboxybutanoyl]amino]-4-carboxybutanoyl]-[Imp1, His3, Glu15, Glu21, Lys24, Leu27, … (peptide)
peptide: [Desaminohistidyl]SHGTFTSDYSKYLESRRAQEFVK([γGlu-γGlu-γGlu-Ac])WLLST-OH
SMILES: CC(=O)N[C@@H](CCC(=O)N[C@@H](CCC(=O)N[C@@H](CCC(=O)NCCCC[C@H](NC(=O)[C@@H](NC(=O)[C@H](Cc1ccccc1)NC(=O)[C@H](CCC(=O)O)NC(=O)[C@H](CCC(N)=O)NC(=O)[C@H](C)NC(=O)[C@H](CCCNC(=N)N)NC(=O)[C@H](CCCNC(=N)N)NC(=O)[C@H](CO)NC(=O)[C@H](CCC(=O)O)NC(=O)[C@H](CC(C)C)NC(=O)[C@H](Cc1ccc(O)cc1)NC(=O)[C@H](CCCCN)NC(=O)[C@H](CO)NC(=O)[C@H](Cc1ccc(O)cc1)NC(=O)[C@H](CC(=O)O)NC(=O)[C@H](CO)NC(=O)[C@@H](NC(=O)[C@H](Cc1ccccc1)NC(=O)[C@@H](NC(=O)CNC(=O)[C@H](Cc1c[nH]cn1)NC(=O)[C@H](CO)NC(=O)CCc1c[nH]cn1)[C@@H](C)O)[C@@H](C)O)C(C)C)C(=O)N[C@@H](Cc1c[nH]c2ccccc12)C(=O)N[C@@H](CC(C)C)C(=O)N[C@@H](CC(C)C)C(=O)N[C@@H](CO)C(=O)N[C@H](C(=O)O)[C@@H](C)O)C(=O)O)C(=O)O)C(=O)O
notes: Imp written X under substitutions
B2: N^ε24-[(4S)-4-[[(4S)-4-[[(4S)-4-[[(4S)-4-[[(4S)-4-acetamido-4-carboxybutanoyl]amino]-4-carboxybutanoyl]amino]-4-carboxybutanoyl]amino]-4-carboxybutanoyl]amino]- … (peptide)
peptide: XSHGTFTSDYSKYLESRRAQEFVKWLLST
modifications: Imp (imidazopropionyl, des-amino-histidine) at position 1; N-epsilon of Lys24 acylated with acetyl-(gamma-Glu)5 substituent as in the name; C-terminal carboxylic acid
notes: as for B1
B3: N^ε24-[(4S)-4-[[(4S)-4-[[(4S)-4-[[(4S)-4-acetamido-4-carboxybutanoyl]amino]-4-carboxybutanoyl]amino]-4-carboxybutanoyl]amino]-4-carboxybutanoyl]-[Imp1, His3, … (peptide)
peptide: [Desaminohistidyl]SHGTFTSDYSKYLD[Aib]RRAQDFVK([γGlu-γGlu-γGlu-γGlu-Ac])WLLST-OH
SMILES: CC(=O)N[C@@H](CCC(=O)N[C@@H](CCC(=O)N[C@@H](CCC(=O)N[C@@H](CCC(=O)NCCCC[C@H](NC(=O)[C@@H](NC(=O)[C@H](Cc1ccccc1)NC(=O)[C@H](CC(=O)O)NC(=O)[C@H](CCC(N)=O)NC(=O)[C@H](C)NC(=O)[C@H](CCCNC(=N)N)NC(=O)[C@H](CCCNC(=N)N)NC(=O)C(C)(C)NC(=O)[C@H](CC(=O)O)NC(=O)[C@H](CC(C)C)NC(=O)[C@H](Cc1ccc(O)cc1)NC(=O)[C@H](CCCCN)NC(=O)[C@H](CO)NC(=O)[C@H](Cc1ccc(O)cc1)NC(=O)[C@H](CC(=O)O)NC(=O)[C@H](CO)NC(=O)[C@@H](NC(=O)[C@H](Cc1ccccc1)NC(=O)[C@@H](NC(=O)CNC(=O)[C@H](Cc1c[nH]cn1)NC(=O)[C@H](CO)NC(=O)CCc1c[nH]cn1)[C@@H](C)O)[C@@H](C)O)C(C)C)C(=O)N[C@@H](Cc1c[nH]c2ccccc12)C(=O)N[C@@H](CC(C)C)C(=O)N[C@@H](CC(C)C)C(=O)N[C@@H](CO)C(=O)N[C@H](C(=O)O)[C@@H](C)O)C(=O)O)C(=O)O)C(=O)O)C(=O)O
notes: Imp and Aib written X under substitutions

The binders below were run against T1, human glucagon receptor (human, UniProt P47871 26-477) (assay: displacement of 125I-glucagon from BHK membranes with human glucagon receptor (SPA), Assay (II)(b)).
T1 construct: whole, on cells; Potency assay (I)(b): whole BHK cells (clone pLJ6'-4-25) with CRE luciferase; also called hGlucagonR; hGCGR
T1 sequence (P47871 26-477): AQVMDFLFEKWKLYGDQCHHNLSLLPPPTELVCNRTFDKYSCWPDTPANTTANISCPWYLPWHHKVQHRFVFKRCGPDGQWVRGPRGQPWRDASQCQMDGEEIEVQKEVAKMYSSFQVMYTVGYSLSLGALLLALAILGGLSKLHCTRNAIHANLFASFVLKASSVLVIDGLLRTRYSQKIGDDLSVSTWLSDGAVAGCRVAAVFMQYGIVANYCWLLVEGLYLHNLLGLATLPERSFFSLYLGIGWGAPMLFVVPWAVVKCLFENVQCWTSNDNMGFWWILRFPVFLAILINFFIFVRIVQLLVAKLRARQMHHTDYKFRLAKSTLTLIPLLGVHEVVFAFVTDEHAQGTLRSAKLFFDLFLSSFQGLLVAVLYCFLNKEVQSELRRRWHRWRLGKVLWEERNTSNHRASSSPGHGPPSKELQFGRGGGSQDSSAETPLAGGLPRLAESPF

Binder | IC50 [nM]
B1 | 1.5
B2 | 2.7
B3 | 0.3

The binders below were run against T1, human glucagon receptor (assay: cell-based or functional assay).

Binder | EC50 hGlucagonR (pM), CRE luciferase reporter in BHK cells [pM]
B1 | 6
B2 | 6
B3 | 2
